According to paper PMC10397247:

Legend:
[1] = target: T1, 4H797-bN; assay: two-hybrid library CCNG1;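 note: natural log of median RNA to DNA barcode read ratio; higher means stronger binding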
T1 chain: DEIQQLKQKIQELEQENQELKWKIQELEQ

[2] = target: T2, 4H2697-bN; assay: two-hybrid library CCNG1;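 note: natural log of median RNA to DNA barcode read ratio; higher means stronger binding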
T2 chain: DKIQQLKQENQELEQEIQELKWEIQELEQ

[3] = target: T3, 4H3606-bN; assay: two-hybrid library CCNG1;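 note: natural log of median RNA to DNA barcode read ratio; higher means stronger binding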
T3 chain: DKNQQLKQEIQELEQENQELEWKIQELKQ

[4] = target: T4, 4H264-bH; assay: two-hybrid library CCNG1;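 note: natural log of median RNA to DNA barcode read ratio; higher means stronger binding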
T4 chain: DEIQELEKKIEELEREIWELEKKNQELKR

[5] = target: T5, 4H3782-bN; assay: two-hybrid library CCNG1;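 note: natural log of median RNA to DNA barcode read ratio; higher means stronger binding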
T5 chain: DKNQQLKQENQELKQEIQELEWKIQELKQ

[6] = target: T6, 4H1446-bN; assay: two-hybrid library CCNG1;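 note: natural log of median RNA to DNA barcode read ratio; higher means stronger binding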
T6 chain: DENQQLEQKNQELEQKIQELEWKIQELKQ

[7] = target: T7, 4H3189-bN; assay: two-hybrid library CCNG1
T7 chain: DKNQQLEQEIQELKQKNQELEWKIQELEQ

[8] = target: T8, 4H953-bN; assay: two-hybrid library CCNG1
T8 chain: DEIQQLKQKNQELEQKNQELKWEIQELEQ

[9] = target: T9, 4H1845-bN; assay: two-hybrid library CCNG1
T9 chain: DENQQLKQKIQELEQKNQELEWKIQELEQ

[10] = target: T10, 4H568-bN; assay: two-hybrid library CCNG1
T10 chain: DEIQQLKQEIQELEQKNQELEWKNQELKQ

[11] = target: T11, 4H370-bN; assay: two-hybrid library CCNG1
T11 chain: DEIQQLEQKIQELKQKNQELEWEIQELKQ

[12] = target: T12, 4H331-bN; assay: two-hybrid library CCNG1
T12 chain: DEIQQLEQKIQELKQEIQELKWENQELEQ

[13] = target: T13, 4H1369-bN; assay: two-hybrid library CCNG1
T13 chain: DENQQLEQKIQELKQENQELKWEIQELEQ

[14] = target: T14, 4H2667-bN; assay: two-hybrid library CCNG1
T14 chain: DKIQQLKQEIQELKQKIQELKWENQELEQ

[15] = target: T15, 4H72-bN; assay: two-hybrid library CCNG1
T15 chain: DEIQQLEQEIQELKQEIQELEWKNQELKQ

[16] = target: T16, 4H687-bN; assay: two-hybrid library CCNG1
T16 chain: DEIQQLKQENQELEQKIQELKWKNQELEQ

[17] = target: T17, 4H2576-bN; assay: two-hybrid library CCNG1
T17 chain: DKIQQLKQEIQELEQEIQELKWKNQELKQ

[18] = target: T18, 4H2610-bN; assay: two-hybrid library CCNG1
T18 chain: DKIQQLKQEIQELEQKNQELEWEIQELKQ

[19] = target: T19, 4H967-bN; assay: two-hybrid library CCNG1
T19 chain: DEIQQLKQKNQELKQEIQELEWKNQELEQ

[20] = target: T20, 4H607-bN; assay: two-hybrid library CCNG1
T20 chain: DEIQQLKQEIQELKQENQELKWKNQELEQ

[21] = target: T21, 4H1328-bN; assay: two-hybrid library CCNG1
T21 chain: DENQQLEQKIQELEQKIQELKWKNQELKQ

[22] = target: T22, 4H462-bN; assay: two-hybrid library CCNG1
T22 chain: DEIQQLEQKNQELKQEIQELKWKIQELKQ

[23] = target: T23, 4H883-bN; assay: two-hybrid library CCNG1
T23 chain: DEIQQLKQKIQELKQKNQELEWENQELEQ

[24] = target: T24, 4H3843-bN; assay: two-hybrid library CCNG1
T24 chain: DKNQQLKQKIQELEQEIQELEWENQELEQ

[25] = target: T25, 4H4001-bN; assay: two-hybrid library CCNG1
T25 chain: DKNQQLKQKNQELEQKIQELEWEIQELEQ

[26] = target: T26, 4H918-bN; assay: two-hybrid library CCNG1
T26 chain: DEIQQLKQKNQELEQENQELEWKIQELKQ

[27] = target: T27, 4H1064-AA; assay: two-hybrid library CCmax; details: mean of both orientations
T27 chain: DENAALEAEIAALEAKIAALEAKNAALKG

[28] = target: T28, 4H2283-AA; assay: two-hybrid library CCmax; details: mean of both orientations
T28 chain: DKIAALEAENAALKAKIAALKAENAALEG

[29] = target: T29, 4H971-AA; assay: two-hybrid library CCmax; details: mean of both orientations
T29 chain: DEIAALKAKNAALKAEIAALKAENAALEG

[30] = target: T30, 4H497-AA; assay: two-hybrid library CCmax; details: mean of both orientations
T30 chain: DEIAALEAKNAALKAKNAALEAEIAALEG

[31] = target: T31, 4H1146-AA; assay: two-hybrid library CCmax; details: mean of both orientations
T31 chain: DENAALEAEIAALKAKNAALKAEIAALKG

[32] = target: T32, 4H3446-AA; assay: two-hybrid library CCmax; details: mean of both orientations
T32 chain: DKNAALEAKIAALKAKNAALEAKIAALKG

[33] = target: T33, 4H2948-AA; assay: two-hybrid library CCmax; details: mean of both orientations
T33 chain: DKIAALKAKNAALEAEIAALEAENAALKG

[34] = target: T34, 4H3417-AA; assay: two-hybrid library CCmax; details: mean of both orientations
T34 chain: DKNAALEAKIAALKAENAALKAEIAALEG

[35] = target: T35, 4H656-AA; assay: two-hybrid library CCmax; details: mean of both orientations
T35 chain: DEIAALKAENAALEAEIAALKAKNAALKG

[36] = target: T36, 4H428-AA; assay: two-hybrid library CCmax; details: mean of both orientations
T36 chain: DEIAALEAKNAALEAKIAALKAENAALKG

[37] = target: T37, 4H3666-AA; assay: two-hybrid library CCmax; details: mean of both orientations
T37 chain: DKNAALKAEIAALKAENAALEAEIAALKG

[38] = target: T38, 4H1035-AA; assay: two-hybrid library CCmax
T38 chain: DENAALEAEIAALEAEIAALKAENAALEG

[39] = target: T39, 4H2713-AA; assay: two-hybrid library CCmax
T39 chain: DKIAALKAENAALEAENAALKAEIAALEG

[40] = target: T40, 4H3102-AA; assay: two-hybrid library CCmax; details: mean of both orientations
T40 chain: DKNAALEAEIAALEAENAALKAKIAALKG

[41] = target: T41, 4H1391-AA; assay: two-hybrid library CCmax; details: mean of both orientations
T41 chain: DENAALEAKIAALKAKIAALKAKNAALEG

[42] = target: T42, 4H391-AA; assay: two-hybrid library CCmax; details: mean of both orientations
T42 chain: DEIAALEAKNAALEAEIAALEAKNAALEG

[43] = target: T43, 4H3628-AA; assay: two-hybrid library CCmax; details: mean of both orientations
T43 chain: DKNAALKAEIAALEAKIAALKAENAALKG

[44] = target: T44, 4H2742-AA; assay: two-hybrid library CCmax; details: mean of both orientations
T44 chain: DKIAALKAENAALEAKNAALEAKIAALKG

[45] = target: T45, 4H1854-AA; assay: two-hybrid library CCmax; details: mean of both orientations
T45 chain: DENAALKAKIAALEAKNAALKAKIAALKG

[46] = target: T46, 4H2248-AA; assay: two-hybrid library CCmax; details: mean of both orientations
T46 chain: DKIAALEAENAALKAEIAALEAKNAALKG

[47] = target: T47, 4H1348-AA; assay: two-hybrid library CCmax; details: mean of both orientations
T47 chain: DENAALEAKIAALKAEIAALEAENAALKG

[48] = target: T48, 4H675-AA; assay: two-hybrid library CCmax; details: mean of both orientations
T48 chain: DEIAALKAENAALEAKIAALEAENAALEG

[49] = target: T49, 4H3029-AA; assay: two-hybrid library CCmax; details: mean of both orientations
T49 chain: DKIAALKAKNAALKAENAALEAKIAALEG

[50] = target: T50, 4H189-AA; assay: two-hybrid library CCmax; details: mean of both orientations
T50 chain: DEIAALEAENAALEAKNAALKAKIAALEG

[51] = target: T51, 4H3591-AA; assay: two-hybrid library CCmax; details: mean of both orientations
T51 chain: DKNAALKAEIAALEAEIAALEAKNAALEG

[52] = target: T52, 4H1109-AA; assay: two-hybrid library CCmax; details: mean of both orientations
T52 chain: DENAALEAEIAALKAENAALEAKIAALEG

[53] = target: T53, 4H3920-AA; assay: two-hybrid library CCmax; details: mean of both orientations
T53 chain: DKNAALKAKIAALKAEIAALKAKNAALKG

[54] = target: T54, 4H3939-AA; assay: two-hybrid library CCmax; details: mean of both orientations
T54 chain: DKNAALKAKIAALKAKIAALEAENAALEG

[55] = target: T55, 4H1809-AA; assay: two-hybrid library CCmax; details: mean of both orientations
T55 chain: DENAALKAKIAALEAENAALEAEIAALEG

[56] = target: T56, 4H3709-AA; assay: two-hybrid library CCmax; details: mean of both orientations
T56 chain: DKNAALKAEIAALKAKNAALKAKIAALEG

[57] = target: T57, 4H2991-AA; assay: two-hybrid library CCmax; details: mean of both orientations
T57 chain: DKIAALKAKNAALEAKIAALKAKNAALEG

[58] = target: T58, 4H3066-AA; assay: two-hybrid library CCmax; details: mean of both orientations
T58 chain: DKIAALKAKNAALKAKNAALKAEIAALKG

[59] = target: T59, 4H478-AA; assay: two-hybrid library CCmax; details: mean of both orientations
T59 chain: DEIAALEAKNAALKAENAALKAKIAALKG

[60] = target: T60, 4H146-AA; assay: two-hybrid library CCmax
T60 chain: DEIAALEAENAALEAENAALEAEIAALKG

[61] = target: T61, 4H3121-AA; assay: two-hybrid library CCmax; details: mean of both orientations
T61 chain: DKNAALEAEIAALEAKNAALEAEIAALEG

Binder: DENQQLEQKIQELEQKIQELKWKNQELKQ [4H1328-bN]
- interaction score [1]: -0.686
- interaction score [2]: -0.465
- interaction score [3]: -0.42
- interaction score [4]: 1.68
- interaction score [5]: -1.38
- interaction score [6]: 0.527
- interaction score [7]: -0.232
- interaction score [8]: -0.513
- interaction score [9]: -1.61
- interaction score [10]: -0.31
- interaction score [11]: -0.748
- interaction score [12]: 1.8
- interaction score [13]: -0.223
- interaction score [14]: 1.46
- interaction score [15]: 0.764
- interaction score [16]: 0.403
- interaction score [17]: 1.57
- interaction score [18]: 0.84
- interaction score [19]: 0.0544
- interaction score [20]: -0.376
- interaction score [21]: 0.393
- interaction score [22]: -1.6
- interaction score [23]: 0.625
- interaction score [24]: 1.16
- interaction score [25]: 1.19
- interaction score [26]: -0.287

Binder: DENAALEAEIAALEAEIAALKAENAALEG [4H1035-AA]
- interaction score [27]: -0.486
- interaction score [28]: -1.67
- interaction score [29]: -0.881
- interaction score [30]: -1.73
- interaction score [31]: -1.34
- interaction score [32]: -1.17
- interaction score [33]: -1.56
- interaction score [34]: -1.73
- interaction score [35]: -1.67
- interaction score [36]: -1.35
- interaction score [37]: -1.55
- interaction score [38]: -0.719
- interaction score [39]: -1.63
- interaction score [40]: -1.34
- interaction score [41]: 0.63
- interaction score [42]: -1.84
- interaction score [43]: 1.36
- interaction score [44]: -1.51
- interaction score [45]: -0.616
- interaction score [46]: -1.39
- interaction score [47]: 1.45
- interaction score [48]: -2.03
- interaction score [49]: -2.17
- interaction score [50]: -1.24
- interaction score [51]: -1.08
- interaction score [52]: -1.69
- interaction score [53]: 1.9
- interaction score [54]: 0.466
- interaction score [55]: -1.83
- interaction score [56]: -0.573
- interaction score [57]: -1.12
- interaction score [58]: -0.363
- interaction score [59]: -1.03
- interaction score [60]: -1.39
- interaction score [61]: -1.67
